Biological target: Helicobacter hepaticus Group III 2/2 hemoglobin (Hh Hb), wild type (Helicobacter hepaticus ATCC51449)
Assay: NMR 15N relaxation

- stoichiometry N: > 2
Substance: Helicobacter hepaticus Group III 2/2 hemoglobin (Hh Hb), wild type (natural protein)

— PMC3077074
